Laboratory results: US20200138960A1 (KUNSHAN XINYUNDA BIOTECH, published 2020)
Changes are numbered by the printed parent chain.

B1: N-loop (designed binder)
chain: MSSQIRQNYHQDSEAAVNRQINLYLQASYTYLSLGFYFDRDDVALEGVSHFFRELAEEKREGYERLLKMQNQRGGRIFLQDIKKPDCDEWGKTPDAMKAAMALEKKLNQALLDLHKLATDKNDPHLCDFLETHFLDEEVKLIKKMGDHLTNLHRLGGPEAGLGEYLFERLTLKHD
notes: expressed in E. coli from PET22b; Purity of target protein 77.1%; also called N-loop modified protein
B2: N terminal (designed binder)
chain: B1 chain with D86A, C87E
B3: C-loop (designed binder)
chain: MSSQIRQNYSTDVEAAVNSLVNLYLQASYTYLSLGFYFDRDDVALEGVSHFFRELAEEKREGYERLLKMQNQRGGRALFQDIKKPDCDEWESGLNAMECALHLEKKLNQALLDLHALGSARTDPHLCDFLETHFLDEEVKLIKKMGDHLTNLRKMGAPEAGLGEYLFERLTLKHD
B4: C terminal (designed binder)
chain: B3 chain with D86A, C87E
B5: NC-loop (designed binder)
chain: MSSQIRQNYHQDSEAAVNRQINLYLQASYTYLSLGFYFDRDDVALEGVSHFFRELAEEKREGYERLLKMQNQRGGRIFLQDIKKPDCDEWESGLNAMECALHLEKKLNQALLDLHKLATDKNDPHLCDFLETHFLDEEVKLIKKMGDHLTNLRKMGAPEAGLGEYLFERLTLKHD
B6: NC fusion (designed binder)
chain: B5 chain with D86A, C87E
B7: chimeric human H-ferritin (designed binder)
chain: MTSQVRQNYHQDSEAAINRQINLELYASYVYLSMSYYFDRDDVALEGVSHFFRELAEEKREGYERLLKMQNQRGGRIFLQDIKKPDCDDWESGLNAMECALHLEKNVNQSLLELHKLATDKNDPHLCDFLETHFLDEEVKLIKKMGDHVTNLRKMGAPESGLAEYLFERLTLKHD
notes: FITC-labelled in the cell assays; also called chimeric human H-ferritins

Biological target: T1, TfR1 (human, Sino Biological Inc.) (human, UniProt P02786 89-760)
T1 construct: Bought protein; the catalogue number printed for it (11020-MM02) is the same as that printed for the anti-TfR1 primary antibody, so the construct cannot be told; also called TfFR1; receptor TfR1
Assay: ELISA value converted by purity of target protein

T1 sequence (P02786 89-760 limits assumed): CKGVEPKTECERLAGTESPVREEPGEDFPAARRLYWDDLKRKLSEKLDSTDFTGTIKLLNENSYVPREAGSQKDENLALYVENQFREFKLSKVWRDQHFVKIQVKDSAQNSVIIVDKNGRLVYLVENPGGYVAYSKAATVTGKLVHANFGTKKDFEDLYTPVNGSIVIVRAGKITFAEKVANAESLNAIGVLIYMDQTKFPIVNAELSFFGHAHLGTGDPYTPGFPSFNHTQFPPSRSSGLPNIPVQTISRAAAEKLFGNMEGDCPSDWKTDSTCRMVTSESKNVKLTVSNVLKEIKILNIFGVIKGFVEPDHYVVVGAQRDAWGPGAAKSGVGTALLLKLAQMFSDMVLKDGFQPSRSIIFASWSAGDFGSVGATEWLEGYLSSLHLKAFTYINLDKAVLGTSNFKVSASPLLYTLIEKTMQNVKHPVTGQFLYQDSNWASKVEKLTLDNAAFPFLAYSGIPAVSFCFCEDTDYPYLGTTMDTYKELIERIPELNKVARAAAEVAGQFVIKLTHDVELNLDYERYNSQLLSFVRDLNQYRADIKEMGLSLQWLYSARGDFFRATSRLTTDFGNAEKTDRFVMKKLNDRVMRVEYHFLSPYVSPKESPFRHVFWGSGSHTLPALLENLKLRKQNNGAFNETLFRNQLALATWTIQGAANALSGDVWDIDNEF

Binder | Converted ELISA value
B1 | 1.52
B2 | 1.3
B3 | 0.71
B4 | 0.17
B5 | 2.02
B6 | 1.14

Biological target: T1, TfR1 (human, Sino Biological Inc.)
Assay: ELISA, protein coated at 20 ug/mL, 2 ug/mL TfR1, anti-TfR1 detection

Binder | ELISA value [OD630]
B1 | 1.17
B2 | 0.88
B3 | 0.31
B4 | 0.1
B5 | 1.23
B6 | 1.03

Biological target: T2, human Transferrin Receptor 1 (TfR1) on cells (human, UniProt P02786 1-760)
T2 construct: whole, on cells; Endogenous receptor on human cell lines; also called receptor TfR1 on hCMEC/D3 cells; TfR1 on U87-MG cells
Assay: flow cytometry on hCMEC/D3 cells according to Example 1b

T2 sequence (P02786 whole entry): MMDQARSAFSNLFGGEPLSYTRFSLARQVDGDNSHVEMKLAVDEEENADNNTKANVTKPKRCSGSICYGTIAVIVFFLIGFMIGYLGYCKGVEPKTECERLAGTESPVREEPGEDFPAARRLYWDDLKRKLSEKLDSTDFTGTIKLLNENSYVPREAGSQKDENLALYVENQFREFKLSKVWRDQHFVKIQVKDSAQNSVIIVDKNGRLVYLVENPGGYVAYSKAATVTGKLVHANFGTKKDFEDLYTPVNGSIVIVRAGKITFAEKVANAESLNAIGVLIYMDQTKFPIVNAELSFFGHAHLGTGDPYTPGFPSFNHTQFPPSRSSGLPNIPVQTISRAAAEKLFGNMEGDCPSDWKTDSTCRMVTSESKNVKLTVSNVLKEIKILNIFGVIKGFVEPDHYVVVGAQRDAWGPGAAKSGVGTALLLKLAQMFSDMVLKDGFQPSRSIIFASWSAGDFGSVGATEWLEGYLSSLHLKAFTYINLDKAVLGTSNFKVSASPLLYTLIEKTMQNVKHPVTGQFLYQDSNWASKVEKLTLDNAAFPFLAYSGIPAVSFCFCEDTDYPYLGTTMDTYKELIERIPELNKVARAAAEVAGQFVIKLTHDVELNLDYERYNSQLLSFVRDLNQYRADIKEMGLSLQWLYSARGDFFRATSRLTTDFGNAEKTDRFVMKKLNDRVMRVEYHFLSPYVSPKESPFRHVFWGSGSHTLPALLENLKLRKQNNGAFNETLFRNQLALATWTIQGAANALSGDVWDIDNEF

Binder | binding result
B7 | binds
